The results in this text go back to the supplement of paper PMC12042874.

± gives the uncertainty stated by the source.

The nature of this series: amyloid nucleation score (Sup35N fusion, yeast selection) (log enrichment); library NNK1; higher = more nucleation; inactive = no reads after selection. The gist of the method:
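In psi-negative yeast, Sup35N fusions carrying peptides of 20 random codons were induced with 100 μM copper sulfate for 24 hours. The cells then grew 7 days at 30°C on medium lacking adenine and uracil, and plasmid inserts from input and output were Illumina-sequenced, excluding sequences with under 100 input reads. Nucleation score is the DiMSum log enrichment of output over input reads, centred on the mode score of non-aggregating sequences.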
VLAVCKVYASWYFTFWMF displayed an amyloid nucleation score of 4 ± 0.088. For VLAVLVFSGCGGVRGTSNLT the value was 1.54 ± 0.14; for VLCGNPLFRFVLGWRFCVWG, 0.335 ± 1.1; for VLCSRIYDHAWAKG, “inactive”.

Substance VLCVSRRSAIYTWGSSLYCD returned an amyloid nucleation score of -0.691 ± 1.4. The value for VLDEYFCNLC was 5.989 ± 0.058; that for VLEYKD was -1.97 ± 2.4; that for VLFFKVIIYVALRMVLMEKD was -1.18 ± 1. In the case of VLFGS, the amyloid nucleation score is -0.462 ± 0.93. For VLGDLVRFRAYASRAIMLSL the value was -0.11 ± 0.79. The value for VLIDMSGSCSKAMHAIRQDR was 0.218 ± 0.73. The value for VLKLLVVRFVPLPSSFYTCE was 0.193 ± 0.92.

VLKVCTWIKYLQSV: the amyloid nucleation score is -0.279 ± 0.33. Take VLLFNHYFLRAAVIIAWVGW: the amyloid nucleation score was -0.618 ± 1.6. VLLIRYYFMKFDLSL showed an amyloid nucleation score of 0.359 ± 0.47. Substance VLMCDGFHALRKL had an amyloid nucleation score of 1.97 ± 0.36. As to VLNFEGMSRAVFLRLISIQQ, the amyloid nucleation score was -0.837 ± 0.9. The value for VLNNLDLCSIRIVSKVSLFM was 6.88 ± 0.085; that for VLRCVISLQV was “inactive”; that for VLRIDSPLSMILFEVVRCEQ was -0.322 ± 0.31. The value for VLSKFIVSDLMAISQNKLHR was “inactive”.

Substance VLTKWGIWGGQWCTVLSRGR yielded an amyloid nucleation score of 0.211 ± 0.37. VLTVRLTMLDCHLAAFSSNA yielded an amyloid nucleation score of 1.66 ± 0.16. For VLTWFDCYLICLYTRTSLRI the value was 0.365 ± 0.41; for VLVDGSRSWGG, 0.952 ± 0.52; for VLVDKSDRVRGLS, -0.101 ± 0.3.

For VLVFIFDSTVSI, the amyloid nucleation score amounted to 8.236 ± 0.046. The value for VLYAP was -0.33 ± 1.7.

The substance VLYELSKMGYRVLLYTHPDR had an amyloid nucleation score of 0.125 ± 0.46. The value for VMAGHFCYWCRCRVARQLSW was -0.69 ± 0.77.

Take VMFRLTGELGDMKCGVLSDA: the amyloid nucleation score was found to be 1.47 ± 0.38. The value for VMGLT was -0.242 ± 1.1; that for VMGSGLRMGLAESCVENGAS was -0.021 ± 0.31. For VMLFSDVFWALMLHFYDPAF the value was -1.01 ± 0.61.

VMMYLFYFHTRMCMSHLCYA returned an amyloid nucleation score of -0.891 ± 1.6. For VMPYYRRSQNHDSFNFGDVS the value was 0.552 ± 0.52; for VMSFILYLSMLCGARDSQRH, 2.89 ± 0.14.

For VMTFLISLSWYSL, the amyloid nucleation score is 0.328 ± 0.23.

Take VMWRFKSVTCI: the amyloid nucleation score is -0.393 ± 0.33.

As for VNCFSTLSMLWMSVQTEPRV, the amyloid nucleation score is 1.04 ± 0.28. For VNCGSYVDLDVGVIGPR the value was 0.255 ± 0.84; for VNIKLLVVRAVFVILKDMGK, 2.16 ± 0.12; for VNLGVRAGGLCRHAEKGDMT, -0.364 ± 0.53.

VNLHWGSDEAVSIARDIYTW registered an amyloid nucleation score of 0.533 ± 0.29. For VNMSKHYRRGWGDDVATGVR the value was 0.693 ± 0.49.

VNPNGGEDNVLGCPIRSWQW came in with an amyloid nucleation score of -0.031 ± 1.2. On to VNSFCR, for which the amyloid nucleation score was found to be 0.587 ± 1.1. The value for VNSIESCANFH was -0.198 ± 1.7; that for VNSRCLSAYTK was 0.46 ± 0.34; that for VNVNNLRRTYNIRWVVGPGL was 5.57 ± 0.064. Substance VNWIVVVFTNMLFLTKGRNA had an amyloid nucleation score of 0.308 ± 0.27. The value for VNYTTSQSRRDFPSNRSQSG was 0.715 ± 0.83; that for VPLVVNRDARH was 1.26 ± 0.59.

As to VPSNLQGSPFPQLGMSALVH, the amyloid nucleation score stood at 0.149 ± 0.62.

For VPTMEMTVAYGSWTCSERCE, the amyloid nucleation score is -0.468 ± 0.44. For VPWLKGAVDPVTRFGV the value was -0.016 ± 0.78; for VQRCWYGR, -1.94 ± 2.7; for VRAELFLTLPKGTQADALAV, -0.166 ± 0.67. In turn, VRALND gave an amyloid nucleation score of -0.581 ± 0.3.

Take VRCVICCFCIWLKAWWDYKR: the amyloid nucleation score stood at 1.47 ± 0.45. For VRDGDTMILGVYRNIWGTNV the value was 0.429 ± 0.24; for VRFSVLKVTVLTKARNEVST, 1.7 ± 0.24. Turning to VRGSVGANGQHVPEDMTVRM, the amyloid nucleation score was 0.786 ± 0.44. Consider VRIAPHKGPDRTSGVLLGRM, for which the amyloid nucleation score was determined as 0.838 ± 0.75. Substance VRKISIFFMNSWVWLSSRFH gave an amyloid nucleation score of 0.069 ± 0.49. The value for VRKSSVASLECQNA was 0.335 ± 0.28. VRLGMRQMCYQKNRTCQVYF yielded an amyloid nucleation score of -0.173 ± 0.62. Regarding VRLVVQWEKVKDCLIVWD, the amyloid nucleation score is 1.85 ± 0.12. The value for VRMGQDRHIISTKLTVSREL was -1.22 ± 2.7; that for VRNDLNTH was 0.377 ± 0.19.

The substance VRNDQRLLCRRFVKFSDFQS returned an amyloid nucleation score of -0.62 ± 0.95.

The substance VRNWCVGSTVARRYHWMTCP yielded an amyloid nucleation score of 0.413 ± 0.58. The value for VRPMSDNSRVCVKSDNRSTG was -1.14 ± 0.93; that for VRSGRSDATAAKYFLHLTWY was -0.465 ± 0.89; that for VRSLARNG was 0.947 ± 0.7. The value for VRSPNIEYDFCRVLPTLTGE was 0.505 ± 1.4. As to VRVQTRHLGDGLPHGQDKCY, the amyloid nucleation score was -0.403 ± 0.52. For VRVVSTSRILFHGFFRNNKG the value was 0.567 ± 0.33. The value for VRYVNRLKAHALDPKLKTL was -0.18 ± 0.62; that for VSALAVRARWAINTLARDRR was 0.9 ± 0.66; that for VSCCNSQTSQLMDFGNKVSP was 0.349 ± 0.25. The value for VSCQHTVFKVICSYLPHLCK was 0.666 ± 0.59; that for VSFRTLYGRI was -0.187 ± 0.27.

In turn, VSHIAPRWPLSRTIRETQRM came in with an amyloid nucleation score of 0.479 ± 1.2.

The substance VSHSGCKSF registered an amyloid nucleation score of -0.434 ± 0.47. For VSIGILLFILPSRTGCVCLM the value was 0.087 ± 0.66; for VSKGLEHRPHVWG, 5.35 ± 0.064; for VSLLKGRVAMSRG, 1.1 ± 0.38.

VSLVMWVYCGDDWLSFAIRA showed an amyloid nucleation score of -0.211 ± 0.38. The value for VSMHNLMQRFSGFMYQCFAG was 1.55 ± 0.2. Turning to VSNFIGVFVAVSWRYDDLCF, the amyloid nucleation score was 0.324 ± 1.2.

In turn, VSNRTVNDGYGSSGAALCLR registered an amyloid nucleation score of 0.099 ± 0.44. On to VSRLRSDWNL, for which the amyloid nucleation score turned out to be 1.43 ± 0.3. The value for VSVSNISSVLTLSGKMLIST was -0.031 ± 0.39; that for VSWECSIVNAYMQPATCDII was 4.88 ± 0.1.

The substance VSWHGSVLHRACMKWVCMCG had an amyloid nucleation score of 0.51 ± 0.79. The value for VSYLEGVRWLCIIYTGNRSW was “inactive”. The value for VTCRLPETMPGGTWLNMIIR was “inactive”. For VTFLIMGWLRDRRV the value was -0.563 ± 0.39; for VTFWDPVVLTTPPKLCI, -0.946 ± 0.49; for VTHNSTAHE, 1.09 ± 0.75.

Substance VTNTSLFSIAKSLGHHHEGR yielded an amyloid nucleation score of 0.272 ± 0.4. The value for VTPGRLQRLVM was -1.39 ± 0.58; that for VTRFRYECRSGHRKHPGGMD was “inactive”.

Take VTVEIAWKMA: the amyloid nucleation score amounted to 0.054 ± 0.67.

On to VTYDKAQG, for which the amyloid nucleation score worked out at 0.051 ± 0.68. As to VVAGNSAKEIYKFTGADTPY, the amyloid nucleation score is -0.751 ± 0.57.

VVCNCGHGIKNIC gave an amyloid nucleation score of -1.08 ± 1.6.

For VVDEKREVRSLANVNTASSL, the amyloid nucleation score was found to be 0.1 ± 0.28. For VVDLVHVCSFFTFYVCATLL the value was 1.66 ± 0.6; for VVDSTFWEVIHRRWASAMLD, -0.657 ± 0.68; for VVESGVFWDSSYNFKGDTVW, 0.532 ± 0.92.

In the case of VVGRGKLQCVLFRHDTAYRV, the amyloid nucleation score was -0.058 ± 0.28. For VVISMTTMKVFMLVYTMDFM the value was 0.046 ± 0.21; for VVKLRHYAEKICGSETELG, 0.003 ± 0.51. The value for VVLQTTPSAYSIMVHLWYYS was 0.472 ± 0.46; that for VVLSIYTNITSCCDLLTSRR was 6.787 ± 0.047.

VVNSSS: the amyloid nucleation score was 0.537 ± 0.85.

The substance VVRWSFDNAYSSSLDNLIVI returned an amyloid nucleation score of -0.209 ± 0.34. For VVSLNE the value was 0.915 ± 0.9.

Take VVSTPHSN: the amyloid nucleation score was -0.099 ± 0.85. The value for VVTRYL was 0.403 ± 0.36; that for VVTVLGVGLDSSSSGWWFVA was 0.168 ± 0.46.

Consider VVVVKLQVQCDGESMSACLG, for which the amyloid nucleation score was -0.495 ± 1.5. The substance VVWYLMVFWPCDSLSPMSRS displayed an amyloid nucleation score of 0.559 ± 0.4.

VWCRFERDTISKLCASWGRR showed an amyloid nucleation score of -0.237 ± 1.9. The value for VWENQLVWMVWWWEGTGS was 0.527 ± 0.49; that for VWEQLIAE was -0.26 ± 0.84. VWIDLSMCIYMLEPLNSLFR came in with an amyloid nucleation score of 1.95 ± 0.19. The value for VWKDS was -0.285 ± 0.65; that for VWMRVKIGGVWC was 1.58 ± 0.47; that for VWNNKECANFDNIWATLLIV was “inactive”. For VWVKSHLY the value was -0.537 ± 0.25. The substance VYAMGIHWRFCAKKRIMSG yielded an amyloid nucleation score of -0.802 ± 1.7.

In turn, VYAQMALLR yielded an amyloid nucleation score of -0.164 ± 0.62. For VYCCTYVQINVGVERSTEIR the value was 7.044 ± 0.05; for VYCVCYLWLKVVHKSLDTLS, 2.23 ± 0.079; for VYIVCYFLHTGSFGWTCCVE, “inactive”.

For VYKTRVYVDCYEILDGSKEM, the amyloid nucleation score is 0.491 ± 0.45. For VYRLEVIARK the value was 1.69 ± 0.33.
